In the supplement of paper PMC9732359:
± gives the uncertainty stated by the source.

Assay: protein stability index of a GFP-peptide fusion (yeast GPS) (PSI 1-4); higher = more stable; sorted into four equal gates, so the index is relative within each strain
Conditions: pdr5∆
How it was run: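 Tiled yeast protein peptides of 17 residues were each joined downstream of GFP, on plasmids that also express Cherry. The pooled library was maintained in yeast, and mid-log cultures in leucine-free medium were sorted into four equal gates on the GFP/Cherry ratio. Plasmids from every gate were amplified by PCR and sequenced on Illumina, with barcodes linking reads to strains. The protein stability index of a peptide is its gate-number-weighted read frequency summed over the gates.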
With ESFTEELSNELSRLSTA [MED1] the protein stability index was 3.12 ± 0.066.
Sequence ESITKAMEFIFGNSLIC [SMC2] has a protein stability index of 1.55 ± 0.066.
For ESITYQKIMILQRTILN [RGR1], the protein stability index was 1.69 ± 0.06.
With ESLILKWDNQSASRAKN [RGR1] the protein stability index was 3.24 ± 0.055.
ESLREIPYGPDFDNIEF [SEC65] gave a protein stability index of 3.12 ± 0.067.

Same assay, conditions: san1∆
For EFEYDDEPDEQGNPKKR [CYT1], the protein stability index was 3.04 ± 0.07.
In the case of EFFSTNWLSIFNDFSNI [REC8], the protein stability index is reported as 2.09 ± 0.098.
For EFIFGTYNMIDAAAEKR [ARP7], the protein stability index was 3.08 ± 0.044.
With EFISIYSNSHQMAVHIA [RET1] the protein stability index was 3.04 ± 0.11.
EFLYSKAGREELERVNV [QCR8] gave a protein stability index of 3.28 ± 0.11.
Sequence EFTLFMDIAERIAVLHQ [YGL172W/NUP49] has a protein stability index of 2.24 ± 0.068.
In the case of EFVSYYYAHSIPSSKID [SNU114], the protein stability index is reported as 2.07 ± 0.063.
Sequence EGIEKMGVRTFSQKEMA [FAS2] has a protein stability index of 2.88 ± 0.071.
EGKRIAFGFVDRTLPHF [RPO21] gave a protein stability index of 2.95 ± 0.048.
In the case of EGLELLGWIHTQTEELK [PRP8], the protein stability index is reported as 3.16 ± 0.053.
For EGRLYQVEYALESISHA [PRE9], the protein stability index was 1.98 ± 0.086.
EGTSISVHLIECYKQLF [YCS4] gave a protein stability index of 3.42 ± 0.14.
In the case of EHFSHFGHIMEDFQVLR [YDL088C/ASM4], the protein stability index is reported as 2.54 ± 0.059.
EHIIRDVHNGYILRYLH [COB] gave a protein stability index of 1.39 ± 0.16.
Work on EHRRYDDQLKQRRQNIR [RPT4] yielded a protein stability index of 2.29 ± 0.14.
In the case of EHSQVEQTCVKLLDSGC [SRP72], the protein stability index is reported as 3.11 ± 0.085.
Work on EIAGLSPYERRLIDLIR [RPL36A] yielded a protein stability index of 2.02 ± 0.14.
For EIEIEGVMSLLQKSSKS [YAR002W/NUP60], the protein stability index was 3.26 ± 0.09.
For EIFQLFTNPSVDIQIIN [SWI1], the protein stability index was 2.55 ± 0.078.
Work on EILTNQQRGITYLNEVL [YGR119C/NUP57] yielded a protein stability index of 3.12 ± 0.061.
Sequence EIMYTGVSISVSFNSKQ [SMC3] has a protein stability index of 2.83 ± 0.087.
EISTSKKNNLEFGTYGK [RPN14] showed a protein stability index of 2.17 ± 0.082.
For EITAKEVYDFTHAVGNN [FAS1], the protein stability index was 2.92 ± 0.046.
With EITQQEKGLNELSIRDV [SMC4] the protein stability index was 2.74 ± 0.089.
In the case of EITVVKPDSDIVALSSE [PRE6], the protein stability index is reported as 3.24 ± 0.04.
EKAKSAGVQGSKVSKQQ [RPL24B] showed a protein stability index of 3.31 ± 0.14.
With EKIAAGYMQKPVYATIG [PRP28] the protein stability index was 2.67 ± 0.15.
EKIKDIHNTKLPAYSGE [POP1] showed a protein stability index of 2.96 ± 0.048.
EKIKKINYHQYISKAQN [SSN2] showed a protein stability index of 2.07 ± 0.078.
With EKIMILLVPLALLTKRL [CSN12] the protein stability index was 1.33 ± 0.069.
EKKILNQFLKIKKKRKE [SMC1] gave a protein stability index of 2.89 ± 0.1.
Sequence EKKNDENSTSNSKPEKS [YLR335W/NUP2] has a protein stability index of 3.28 ± 0.054.
In the case of EKLITSKLLVPQKNVKI [PRE10], the protein stability index is reported as 2.04 ± 0.096.
With EKLKVNMEKEKDRIIDE [YIL149C/MLP2] the protein stability index was 3.39 ± 0.1.
In the case of EKPQFKDGETTDANGKT [RPO26], the protein stability index is reported as 3.36 ± 0.059.
With EKSDALVGVYRQQQENS [SMC1] the protein stability index was 3.41 ± 0.12.
ELADLPKLKRIGLVKCT [GRR1] gave a protein stability index of 2.28 ± 0.088.
Sequence ELAESTTTKIIDSTDHI [LRP1] has a protein stability index of 2.86 ± 0.24.
Sequence ELAGGNASLTIEDEDEP [SMC1] has a protein stability index of 3 ± 0.059.
Sequence ELAQYMKTNVHTQANEP [RGR1] has a protein stability index of 2.75 ± 0.064.
In the case of ELFKGYLADDIDADSLE [RPL5], the protein stability index is reported as 3.23 ± 0.064.
With ELGAINLHALSMSLQSK [SWI1] the protein stability index was 1.99 ± 0.27.
Work on ELGISLEHPYGKEVEVL [SNU114] yielded a protein stability index of 2.17 ± 0.094.
Sequence ELGNMTMLITGQRPDRA [SIN4] has a protein stability index of 2.69 ± 0.09.
ELLEYSDDIAENDNLDN [YCG1] showed a protein stability index of 3.21 ± 0.049.
ELLKLLNDEYNYPQLTE [YCS4] showed a protein stability index of 3.03 ± 0.059.
For ELLPHYPFVTNDDIEWM [YJR042W/NUP85], the protein stability index was 2.87 ± 0.065.
Work on ELMRIISRNGDTSYKID [SMC1] yielded a protein stability index of 2.99 ± 0.072.
With ELNEEKKRLMDIDDELN [SMC2] the protein stability index was 2.69 ± 0.15.
Work on ELNVKHVKQCQETCDKL [SMC2] yielded a protein stability index of 3.09 ± 0.082.
ELPLLSPERFATLGIDP [RPT1] showed a protein stability index of 3.27 ± 0.16.
ELPLVITMPATNGKPDM [ARP7] gave a protein stability index of 2.9 ± 0.065.
For ELRRFESSINTHPHAAD [SKI6], the protein stability index was 2.56 ± 0.064.
In the case of ELSDSDRQIINEKMQLL [SIR4], the protein stability index is reported as 2.56 ± 0.06.
ELSIRFPQYKLTTFANQ [ARP7] showed a protein stability index of 1.65 ± 0.12.
ELTDKLSALNSEISSLK [SMC1] showed a protein stability index of 3.02 ± 0.074.
Work on ELTKTKSSLYSAQDLLD [YIL149C/MLP2] yielded a protein stability index of 2.6 ± 0.07.
Work on ELTQVPSARQKYMVKGG [UBP6] yielded a protein stability index of 2.95 ± 0.1.
With EMAEKIDFTLLNRLLRL [PRP8] the protein stability index was 2.57 ± 0.054.
With EMNLHVPQTEEARAEAI [RPO31] the protein stability index was 3.05 ± 0.08.
EMVENSSENNQIILAYI [SRP68] showed a protein stability index of 2.77 ± 0.08.
For ENEISSLLAMHKHNIMK [CDC53], the protein stability index was 3.02 ± 0.052.
For ENFSNGISLVMEIVANA [MED1], the protein stability index was 2.5 ± 0.057.
ENGDEDEDEDEDEDDDD [QCR6] gave a protein stability index of 1.92 ± 0.05.
Sequence ENLMVQRTCLMTVTFLI [YCS4] has a protein stability index of 2.16 ± 0.07.
Work on EPEFHALSQSSLLKTKL [RRI1] yielded a protein stability index of 2.39 ± 0.042.
With EPFNAGIKYHATPPLKR [SMC1] the protein stability index was 2.79 ± 0.062.
Sequence EPILGQITLTFISELCS [YML103C/NUP188] has a protein stability index of 3.1 ± 0.055.
In the case of EPIYGVQYKLLSISVPS [SNU114], the protein stability index is reported as 2.02 ± 0.18.
With EPKKDKESIVLPTVGFD [YOR098C/NUP1] the protein stability index was 3.11 ± 0.16.
Sequence EPKKPSFTFASSKTSQP [YOR098C/NUP1] has a protein stability index of 2.9 ± 0.045.
Work on EPKQKANAVQNNNGNSA [SRP21] yielded a protein stability index of 2.85 ± 0.19.
With EPNLAAQQDSTNVRLYS [ECM29] the protein stability index was 2.81 ± 0.089.
In the case of EPPLSYEQHIENIEPLD [PRP8], the protein stability index is reported as 2.32 ± 0.12.
Sequence EQDALFITRLAQGLLHL [RPN1] has a protein stability index of 2.38 ± 0.14.
In the case of EQLSKQRDLYKRKEELV [SMC2], the protein stability index is reported as 2.67 ± 0.086.
EQSNSRKRTRSEAEQID [YCG1] showed a protein stability index of 2.81 ± 0.1.
In the case of EQTEGEPKKKRGFLGLF [SRP68], the protein stability index is reported as 2.9 ± 0.064.
For ERAKNVNGLLQVLMDIN [GAL11], the protein stability index was 3.19 ± 0.12.
With ERDCVIAYGASQLLLER [RET1] the protein stability index was 1.24 ± 0.14.
ERDFYHSLREYINGKAT [RPO31] gave a protein stability index of 2.9 ± 0.037.
Work on ERDSYKLLASTEENKAN [YIL149C/MLP2] yielded a protein stability index of 2.84 ± 0.046.
ERFTKSKTLSLIQSYSL [FAS1] showed a protein stability index of 1.93 ± 0.11.
Sequence ERGGKFHESGSQYSTMV [RGR1] has a protein stability index of 3.44 ± 0.25.
For ERKKQSDVLRFLQRVRV [RPL15B], the protein stability index was 2.04 ± 0.066.
With ERKLKFSNRFLPVASPF [FAS1] the protein stability index was 2.91 ± 0.094.
In the case of ERKRKSVRGAIVGPDLA [RPS6A], the protein stability index is reported as 3.33 ± 0.055.
ERLDKDKDRDTRRKRRQ [SNF5] showed a protein stability index of 2.9 ± 0.11.
In the case of ERQMNFLTNELIRLQME [SWI3], the protein stability index is reported as 3.22 ± 0.048.
ERSYPSEFANQNQGGAQ [ROX3] gave a protein stability index of 2.96 ± 0.066.
Work on ERVPKTQLDKLRPRKDS [SMB1] yielded a protein stability index of 3.09 ± 0.032.
ERVTALKNCKISNINIP [SMC1] gave a protein stability index of 3.1 ± 0.066.
Sequence ERYFDCCTKFFTMMTSE [PCI8] has a protein stability index of 2.35 ± 0.07.
ESDGRMFIEEPTRMVRV [SRP54] showed a protein stability index of 2.83 ± 0.099.
For ESEEAETKDIRKQIQLL [SRB4], the protein stability index was 2.5 ± 0.062.
ESFTEELSNELSRLSTA [MED1] gave a protein stability index of 3.05 ± 0.053.
Work on ESITKAMEFIFGNSLIC [SMC2] yielded a protein stability index of 1.39 ± 0.092.
ESITYQKIMILQRTILN [RGR1] gave a protein stability index of 1.49 ± 0.099.
